Test results from US20250326827A1 (SCHOLAR ROCK, published 2025).

Target: latent myostatin (human, UniProt O14793 24-266; O14793 267-375)
Assay: cell-based or functional assay

target engagement, as measured by latent myostatin (serum level after treatment vs baseline; 2 mg/kg and 20 mg/kg IV every 4 weeks): 100 fold
B1: Apitegromab (antibody, human IgG4 S228P, lambda, V domains shown)
VH: QVQLVESGGGVVQPGRSLRLSCAASGFTFSSYGMHWVRQAPGKGLEWVAVISYDGSNKYYADSVKGRFTISRDNSKNTLYLQMNSLRAEDTAVYYCARDLLVRFLEWSHYYGMDVWGQGTTVTVSS
VL: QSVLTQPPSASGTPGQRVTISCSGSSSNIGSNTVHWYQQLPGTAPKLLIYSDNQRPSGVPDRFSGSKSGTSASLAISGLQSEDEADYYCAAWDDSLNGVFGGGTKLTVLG
